This is an account of results in PMC2002509, “Site-Directed Mutations in the C-Terminal Extension of Human αB-Crystallin Affect Chaperone Function and Block Amyloid Fibril Formation” (PLoS ONE, 2007).

Data set [1] deals with insulin B-chain (bovine pancreas insulin reduced with DTT) (bovine, UniProt P01317 25-54). The data set is described as follows: cell-based or functional assay.
Data set [2] deals with the molecule itself. In words: SEC; size-exclusion HPLC, Phenomenex BioSep SEC S4000 column; mobile phase 50 mM sodium phosphate buffer, pH 7.2; 10 µL of a 10 mg/mL sample, 0.5 mL/min; calibrated with mass standards; self-association into oligomers.

Chain of insulin B-chain (bovine pancreas insulin reduced with DTT) (P01317 25-54): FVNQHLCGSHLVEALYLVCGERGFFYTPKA

B1: I159A/I161A αB-crystallin (natural protein, human, UniProt P02511 1-175, looked up)
chain: MDIAIHHPWIRRPFFPFHSPSRLFDQFFGEHLLESDLFPTSTSLSPFYLRPPSFLRAPSWFDTGLSEMRLEKDRFSVNLDVKHFSPEELKVKVLGDVIEVHGKHEERQDEHGFISREFHRKYRIPADVDPLTITSSLSSDGVLTVNGPRKQVSGPERTAPATREEKPAVTAAPKK
notes: αB-crystallin, human, SwissProt P02511, with I159A and I161A (I-X-I motif); ESI-MS mass 20074.4 Da; The measured mass fits the whole untagged protein with both changes; also called I159A/I161A mutant; source: dialyzed against 50 mM phosphate buffer
In the case of B1, the “decrease in chaperone assay: percentage protection against DTT-induced precipitation of the insulin B-chain (light scattering at 340 nm, 37°C, 1.0:0.14 molar ratio of insulin:αB-crystallin, after 90 …)” value in data set [1] was 68%. Also, in data set [2], the binding result is recorded as “binds”.

B2: Wild-type human αB-crystallin (natural protein, UniProt P02511 1-175, looked up)
chain: MDIAIHHPWIRRPFFPFHSPSRLFDQFFGEHLLESDLFPTSTSLSPFYLRPPSFLRAPSWFDTGLSEMRLEKDRFSVNLDVKHFSPEELKVKVLGDVIEVHGKHEERQDEHGFISREFHRKYRIPADVDPLTITSSLSSDGVLTVNGPRKQVSGPERTIPITREEKPAVTAAPKK
notes: αB-crystallin, human, SwissProt P02511; Polydisperse oligomer; also called αB-WT; wild-type αB-crystallin
With B2, the binding result in data set [2] is on record as “binds”.

B3: K174A/K175A αB-crystallin (natural protein, human, UniProt P02511 1-175, looked up)
chain: MDIAIHHPWIRRPFFPFHSPSRLFDQFFGEHLLESDLFPTSTSLSPFYLRPPSFLRAPSWFDTGLSEMRLEKDRFSVNLDVKHFSPEELKVKVLGDVIEVHGKHEERQDEHGFISREFHRKYRIPADVDPLTITSSLSSDGVLTVNGPRKQVSGPERTIPITREEKPAVTAAPAA
notes: αB-crystallin, human, SwissProt P02511, with K174A and K175A; ESI-MS mass 20044.8 Da; The measured mass fits the whole untagged protein with both lysines changed to alanine, although the printed primer reads GCG AAG; also called K174A/K175A mutant
Take B3: the binding result in data set [2] is listed as “binds”.

B4: K175L αB-crystallin (natural protein, human, UniProt P02511 1-175, looked up)
chain: MDIAIHHPWIRRPFFPFHSPSRLFDQFFGEHLLESDLFPTSTSLSPFYLRPPSFLRAPSWFDTGLSEMRLEKDRFSVNLDVKHFSPEELKVKVLGDVIEVHGKHEERQDEHGFISREFHRKYRIPADVDPLTITSSLSSDGVLTVNGPRKQVSGPERTIPITREEKPAVTAAPKL
notes: αB-crystallin, human, SwissProt P02511, with K175L; ESI-MS mass 20143.9 Da; The measured mass fits the whole untagged protein with the change; also called K175L mutant
As for B4, in data set [2], the binding result is on record as “binds”.

B5: E164A/E165A αB-crystallin (natural protein, human, UniProt P02511 1-175, looked up)
chain: MDIAIHHPWIRRPFFPFHSPSRLFDQFFGEHLLESDLFPTSTSLSPFYLRPPSFLRAPSWFDTGLSEMRLEKDRFSVNLDVKHFSPEELKVKVLGDVIEVHGKHEERQDEHGFISREFHRKYRIPADVDPLTITSSLSSDGVLTVNGPRKQVSGPERTIPITRAAKPAVTAAPKK
notes: αB-crystallin, human, SwissProt P02511, with E164A and E165A; ESI-MS mass 20043.0 Da; The measured mass fits the whole untagged protein with both changes; also called E164A/E165A mutant
In the case of B5, the binding result in data set [2] is on record as “binds”.
